Target: mTFP1
Experiment: SDS-PAGE with in-gel fluorescence; whole-cell extract of C. reinhardtii transformants in SDS sample buffer without β-mercaptoethanol, 40°C for 5 min; 15% resolving gel; gel washed in water to refold the fluorescent proteins; imaged with bandpass filters

stoichiometry N: 2
Substance: mTFP1

From PMC9540369
